Experimental data as given in paper PMC3493965 (The Journal of Biological Chemistry, 2012).

Target: TaCDC48-L745W (W466F, W541Y, L745W) (T. acidophilum, UniProt O05209 1-745, W466F | W541Y | L745W)
Assay: tryptophan fluorescence shift

TaCDC48-L745W (W466F, W541Y, L745W), sequence (O05209 whole entry W466F/W541Y/L745W): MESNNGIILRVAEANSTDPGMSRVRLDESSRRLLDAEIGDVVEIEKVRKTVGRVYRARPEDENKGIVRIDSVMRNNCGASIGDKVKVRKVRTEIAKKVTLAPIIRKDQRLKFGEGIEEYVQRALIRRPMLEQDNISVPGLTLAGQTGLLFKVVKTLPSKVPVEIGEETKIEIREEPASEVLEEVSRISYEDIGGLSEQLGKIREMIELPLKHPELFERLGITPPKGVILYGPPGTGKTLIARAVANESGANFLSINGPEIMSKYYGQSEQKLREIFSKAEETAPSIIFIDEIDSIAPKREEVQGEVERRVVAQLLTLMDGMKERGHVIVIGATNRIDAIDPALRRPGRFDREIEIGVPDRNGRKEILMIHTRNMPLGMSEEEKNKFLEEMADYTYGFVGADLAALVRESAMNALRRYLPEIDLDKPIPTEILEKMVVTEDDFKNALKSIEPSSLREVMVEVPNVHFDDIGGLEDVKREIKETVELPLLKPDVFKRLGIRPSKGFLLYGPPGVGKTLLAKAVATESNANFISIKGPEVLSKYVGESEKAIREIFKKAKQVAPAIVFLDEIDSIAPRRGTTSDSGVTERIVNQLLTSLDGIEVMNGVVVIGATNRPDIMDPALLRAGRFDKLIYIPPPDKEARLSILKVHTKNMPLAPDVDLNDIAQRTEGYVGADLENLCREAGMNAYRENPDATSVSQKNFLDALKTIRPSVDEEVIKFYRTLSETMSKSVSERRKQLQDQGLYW

binding result: binds
B1: Thermoplasma acidophilum 20S proteasome core particle, recombinant (complex, T. acidophilum)
chain 1: MQQGQMAYDRAITVFSPDGRLFQVEYAREAVKKGSTALGMKFANGVLLISDKKVRSRLIEQNSIEKIQLIDDYVAAVTSGLVADARVLVDFARISAQQEKVTYGSLVNIENLVKRVADQMQQYTQYGGVRPYGVSLIFAGIDQIGPRLFDCDPAGTINEYKATAIGSGKDAVVSFLEREYKENLPEKEAVTLGIKALKSSLEEGEELKAPEIASITVGNKYRIYDQEEVKKFL
chain 2: TTTVGITLKDAVIMATERRVTMENFIMHKNGKKLFQIDTYTGMTIAGLVGDAQVLVRYMKAELELYRLQRRVNMPIEAVATLLSNMLNQVKYMPYMVQLLVGGIDTAPHVFSIDAAGGSVEDIYASTGSGSPFVYGVLESQYSEKMTVDEGVDLVIRAISAAKQRDSASGGMIDVAVITRKDGYVQLPTDQIESRIRKLGLIL
